Assay results: publication doi:10.1101/569251 (bioRxiv, 2019)

Target: the molecule itself

B1: SEPT7 (residues 29-437) with N-terminal His-tag (domain or fragment, human, UniProt Q16181-1 29-437, looked up)
chain: GYVGFANLPNQVYRKSVKRGFEFTLMVVGESGLGKSTLINSLFLTDLYSPEYPGPSHRIKKTVQVEQSKVLIKEGGVQLLLTIVDTPGFGDAVDNSNCWQPVIDYIDSKFEDYLNAESRVNRRQMPDNRVQCCLYFIAPSGHGLKPLDIEFMKRLHEKVNIIPLIAKADTLTPEECQQFKKQIMKEIQEHKIKIYEFPETDDEEENKLVKKIKDRLPLAVVGSNTIIEVNGKRVRGRQYPWGVAEVENGEHCDFTILRNMLIRTHMQDLKDVTNNVHYENYRSRKLAAVTYNGVDNNKNKGQLTKSPLAQMEEERREHVAKMKKMEMEMEQVFEMKVKEKVQKLKDSEAELQRRHEQMKKNLEAQHKELEEKRRQFEDEKANWEAQQRILEQQNSSRTLEKNKKKGKIF
B1: binds.
